The source of these data is the supplement of paper PMC9112550, “Optimization of the antimicrobial peptide Bac7 by deep mutational scanning” (BMC Biology, 2022).

This series has as its system Escherichia coli TOP10. Briefly: shrunken log2 fold change of peptide-encoding DNA abundance (4.5 h post-induction vs induction); higher = less antimicrobial activity (less host growth inhibition). Conditions: time post-induction: 4.5 h; library: site-saturation at positions 5, 18, 19, 20.
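Note: peptides expressed intracellularly from a pBAD plasmid library in pooled LB shake-flask culture, induced with 0.3% L-arabinose, DNA abundance read by NGS, three biological replicates, DESeq2 with apeglm shrinkage.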

As for RRIRHRPPRLPRPRPRPRQGPRP, the “shrunken log2 fold change” value stood at 0.093.

As for RRIRERPPRLPRPRPRPDVKPRP, the “shrunken log2 fold change” value was -0.213.

Turning to RRIRRRPPRLPRPRPRPQEWPRP, the “shrunken log2 fold change” value is -0.0466.

For RRIRNRPPRLPRPRPRPDRDPRP, the “shrunken log2 fold change” value was found to be 0.0416. Take RRIRGRPPRLPRPRPRPDVAPRP: the “shrunken log2 fold change” value was 1.98.

Turning to RRIRCRPPRLPRPRPRPKLYPRP, the “shrunken log2 fold change” value is -0.38. The result for RRIRTRPPRLPRPRPRPCTRPRP reads -0.287. RRIRARPPRLPRPRPRPIYQPRP: the “shrunken log2 fold change” value worked out at 0.0519. On to RRIRTRPPRLPRPRPRPFQIPRP, for which the “shrunken log2 fold change” value is -0.103. For RRIRERPPRLPRPRPRPEPVPRP, the “shrunken log2 fold change” value was -0.00161. As to RRIRNRPPRLPRPRPRPVNHPRP, the “shrunken log2 fold change” value is -0.163.

In the case of RRIRYRPPRLPRPRPRPTTHPRP, the “shrunken log2 fold change” value was -0.647. In the case of RRIRCRPPRLPRPRPRPQLWPRP, the “shrunken log2 fold change” value was determined as 0.366. In the case of RRIRMRPPRLPRPRPRPDSAPRP, the “shrunken log2 fold change” value is 0.599. The result for RRIRPRPPRLPRPRPRPMETPRP reads -0.00904; that for RRIRRRPPRLPRPRPRPQYVPRP, -0.265; that for RRIRYRPPRLPRPRPRPGHKPRP, -0.485. RRIRGRPPRLPRPRPRPYSDPRP: the “shrunken log2 fold change” value was -0.11. The result for RRIRFRPPRLPRPRPRPHFRPRP reads -0.634; that for RRIRVRPPRLPRPRPRPCGFPRP, 0.624; that for RRIRWRPPRLPRPRPRPQSQPRP, 0.00151. The result for RRIRSRPPRLPRPRPRPCRTPRP reads -0.2; that for RRIRYRPPRLPRPRPRPFCPPRP, -0.878; that for RRIRNRPPRLPRPRPRPFCTPRP, -0.351. With RRIRHRPPRLPRPRPRPCHRPRP, the “shrunken log2 fold change” value was -0.126. The result for RRIRNRPPRLPRPRPRPVLVPRP reads -0.211; that for RRIRHRPPRLPRPRPRPNQSPRP, -0.3. As to RRIRHRPPRLPRPRPRPGWVPRP, the “shrunken log2 fold change” value was 0.0965.

Turning to RRIRCRPPRLPRPRPRPNMKPRP, the “shrunken log2 fold change” value was -0.769.

Regarding RRIRIRPPRLPRPRPRPAGPPRP, the “shrunken log2 fold change” value came out at 0.153. On to RRIRYRPPRLPRPRPRPLYPPRP, for which the “shrunken log2 fold change” value was -0.929. As for RRIRWRPPRLPRPRPRPAQQPRP, the figure is -0.00145; as for RRIRARPPRLPRPRPRPKNKPRP, 0.216; as for RRIRMRPPRLPRPRPRPMSYPRP, -0.175. As for RRIRRRPPRLPRPRPRPAIKPRP, the figure is 0.304; as for RRIRGRPPRLPRPRPRPMQKPRP, 0.61.

Regarding RRIRQRPPRLPRPRPRPMGLPRP, the “shrunken log2 fold change” value is -0.0103. The result for RRIRIRPPRLPRPRPRPSFWPRP reads 0.059; that for RRIRVRPPRLPRPRPRPCPAPRP, -0.121; that for RRIRIRPPRLPRPRPRPVWDPRP, -0.14. Turning to RRIRERPPRLPRPRPRPPYWPRP, the “shrunken log2 fold change” value amounted to 0.0536. As for RRIRSRPPRLPRPRPRPFHTPRP, the figure is -0.232; as for RRIRHRPPRLPRPRPRPIETPRP, -0.00822; as for RRIRCRPPRLPRPRPRPMWHPRP, -0.147. As for RRIRDRPPRLPRPRPRPAVCPRP, the figure is 1.19; as for RRIRDRPPRLPRPRPRPIMVPRP, -0.103; as for RRIRMRPPRLPRPRPRPDTDPRP, 0.0472.

With RRIRLRPPRLPRPRPRPGKVPRP, the “shrunken log2 fold change” value is -0.0116. RRIRYRPPRLPRPRPRPMIMPRP: the “shrunken log2 fold change” value is -0.0957. As for RRIRVRPPRLPRPRPRPWEKPRP, the figure is 0.0403.
